Reference: PMC13278974, “Nucleophagy removes cytotoxic trapped PARP1” (Nature Cell Biology, 2026)

Molecular target: T1, His–PARP1, full length, recombinant (called GFP-PARP1 / PARP1–GFP in the results and legend) (UniProt P09874 1-1014)
T1 construct: PARP1, full length, cloned into NcoI and BamHI sites of pNIC28; The methods describe only His–PARP1 from pNIC28 with no GFP; Whether GFP was on the protein is open; It was held on PARP1-trap beads; also called pNIC28–PARP1; source: E. coli Rosetta (DE3), purified (HisTrap, SEC Superdex 200)
Assay: pull-down; PARP1 (2.5 µM) held on PARP1-trap beads, TEX264 (2.5 µM) added in 50 mM HEPES pH 7.4, 500 mM NaCl, 0.01% Triton X-100, 1 mM TCEP, 2 h at 4 °C; washes with 0.1% Triton X-100; western blot
Conditions: both partners purified

T1 sequence (P09874 whole entry): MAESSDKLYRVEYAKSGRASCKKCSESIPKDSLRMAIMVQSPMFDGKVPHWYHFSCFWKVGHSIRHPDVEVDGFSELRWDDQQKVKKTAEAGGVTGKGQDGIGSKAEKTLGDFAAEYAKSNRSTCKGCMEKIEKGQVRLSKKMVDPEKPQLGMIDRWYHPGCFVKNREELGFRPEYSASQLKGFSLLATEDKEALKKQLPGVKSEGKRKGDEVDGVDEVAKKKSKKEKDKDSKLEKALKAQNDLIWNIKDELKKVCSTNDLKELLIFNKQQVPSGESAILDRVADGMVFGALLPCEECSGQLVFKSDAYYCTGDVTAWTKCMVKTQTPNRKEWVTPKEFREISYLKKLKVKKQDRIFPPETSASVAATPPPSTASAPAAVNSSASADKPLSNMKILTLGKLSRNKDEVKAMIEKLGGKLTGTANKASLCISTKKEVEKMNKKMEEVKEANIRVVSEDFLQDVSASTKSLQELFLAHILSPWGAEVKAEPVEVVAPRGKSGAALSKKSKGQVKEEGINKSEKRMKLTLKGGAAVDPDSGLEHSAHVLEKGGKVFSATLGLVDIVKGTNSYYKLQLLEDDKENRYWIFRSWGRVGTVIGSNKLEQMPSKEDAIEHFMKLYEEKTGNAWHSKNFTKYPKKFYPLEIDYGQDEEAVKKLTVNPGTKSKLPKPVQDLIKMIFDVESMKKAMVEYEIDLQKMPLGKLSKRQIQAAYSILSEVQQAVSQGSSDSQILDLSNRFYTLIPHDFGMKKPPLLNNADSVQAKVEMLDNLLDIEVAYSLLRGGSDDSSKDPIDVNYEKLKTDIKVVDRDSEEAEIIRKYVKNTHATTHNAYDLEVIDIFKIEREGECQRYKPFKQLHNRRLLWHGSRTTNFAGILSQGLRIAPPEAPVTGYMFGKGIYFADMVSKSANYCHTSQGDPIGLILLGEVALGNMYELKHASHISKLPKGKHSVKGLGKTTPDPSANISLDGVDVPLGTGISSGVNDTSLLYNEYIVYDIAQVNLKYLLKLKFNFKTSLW

Row | binding result | Binder
1 | binds | His–TEX264–Cter (186-313) (domain or fragment, UniProt Q9Y6I9 186-313, looked up, also called C-terminal half of TEX264; variant 2) RQGDFYVPEMKETEWKWRGLVEAIDTQVDGTGADTMSDTSSVSLEVSPGSRETSAATLSPGASSRGWDDGDTRSEHSYSESGASGSSFEELDLEGEGPLGESRLDPGTEPLGTTKWLWEPTAPEKGKE
2 | binds | His–TEX264 (34-313) (domain or fragment, UniProt Q9Y6I9 34-313, looked up, the printed UniProt entry Q9Y6I9 is the human protein; The longest recombinant TEX264 described in the methods; also called TEX264^WT (variant 1); source: E. coli Rosetta (DE3), pCold cold shock system, purified (HiTrap Q FF, SEC Superdex 200)) VEVSAGSPPIRNVTVAYKFHMGLYGETGRLFTESCSISPKLRSIAVYYDNPHMVPPDKCRCAVGSILSEGEESPSPELIDLYQKFGFKVFSFPAPSHVVTATFPYTTILSIWLATRRVHPALDTYIKERKLCAYPRLEIYQEDQIHFMCPLARQGDFYVPEMKETEWKWRGLVEAIDTQVDGTGADTMSDTSSVSLEVSPGSRETSAATLSPGASSRGWDDGDTRSEHSYSESGASGSSFEELDLEGEGPLGESRLDPGTEPLGTTKWLWEPTAPEKGKE
